Measured values as given in paper PMC6405930, “Conservation of the Amyloid Interactome Across Diverse Fibrillar Structures” (Scientific Reports, 2019).

Tests used:
Assay in all cases: Fibril incubation with CSF, quantitative MS/MS of bound proteins
Ab2 fibrils = system: T1, Ab2 fibrils; assay type: binding, human; conditions: 4:1 w/w CSF protein:fibril
T1 construct: Two structurally distinct fibrils of the Aβ(1–40) peptide associated with AD
Experimental: (§1) Plasma and CSF solutions were centrifuged (40,000 g, 20 min) to remove any aggregates. The protein concentration was determined using 280 nm absorbance assuming 1 Abs = 1 mg/mL. […] Control samples (without fibril material) were prepared similarly. All samples were incubated at room temperature for one hour under gentle agitation. Fibrils and fibril-bound proteins were pelleted by centrifugation at 17,000 g for 30 minutes. The supernatant (175 μL) was removed and the aggregate was re-suspended in 175 μL PBS and pelleted again before further preparation for gel analysis and spin-filter assisted digest for quantitative MS/MS.
(§2) The fibril-protein pellets were transferred to spin-filters (0.22 μm), washed twice in PBS (100 μL) and once in 1 M NaCl (100 μL). The fibrils and fibril-bound proteins were dissolved by one-hour incubation in 100 μL 6 M guanidinium chloride followed by elution from the spin-filter. The eluted proteins were loaded onto a 3 kDa MWCO filter unit for filter-assisted unfolding, reduction, alkylation, and trypsin digestion. In brief, samples were washed twice in 8 M urea, once in 8 M urea with 50 mM DTT, once in 8 M urea with 50 mM iodoaceteamide, and twice in 8 M Urea. The filter units were dried by centrifugation (14,000 g in 30 minutes) after every addition. Trypsin digestion was carried out with 0.25 μg sequencing grade trypsin from Sigma Aldrich in 50 mM ammonium bicarbonate overnight at 37 °C. The tryptic peptides were collected by centrifugation, acidified with TFA (0.1%) and micro-purified using POROS R2 column material (Applied Biosystems) packed in P200 pipette tips (Sarstedt).
(§3) LC-MS/MS analyses were performed on an EASY-nLC II system (Thermo Fisher Scientific) connected to a TripleTOF 5600+ mass spectrometer (Sciex) equipped with a NanoSpray III source (Sciex) and operated under Analyst TF 1.6.0 control.
(§4) The micro-purified tryptic peptides were dissolved in 0.1% formic acid, injected and trapped on an in-house packed trap column (2 cm × 100 μm I.D) with RP ReproSil-Pur C18-AQ 3 μm resin (Dr. Maisch GmbH). Peptides were eluted from the trap column and separated on a 15 cm analytical column (75 μm i.d.) packed in-house in a pulled emitter with RP ReproSil-Pur C18-AQ 3 μm resin (Dr. Maisch GmbH). Elution from the analytical column was performed with a linear gradient from 5% to 35% phase B (90% acetonitrile with 0.1% formic acid) over 20 min for protein identification and 50 min for quantitative analysis, respectively.
(§5) All samples were analysed three times, yielding nine MS/MS experiments for each fibril for both plasma and CSF. For the area-based extracted ion chromatogram (XIC) quantification, the acquisition method was set up as an information-dependent acquisition (IDA) experiment collecting up to 25 MS/MS spectra in each 1.6 sec cycle using an exclusion window of 6 sec.
(§6) XIC quantification was based on the average ion intensity of the three most abundant peptides for each protein. Only proteins quantified in at least four out of nine MS/MS experiments per fibril were included in the quantification. The total ion scores were visualized after grouping the proteins according to function (Figure S11).
(§7) For each MS/MS experiment, the ion intensities of the individual proteins were normalized to the total ion intensity of that MS/MS experiment to achieve a relative protein composition. The contribution of each protein was averaged over all nine MS/MS experiments (Tables 1 and 2).

glucagon fibrils = target: T2, glucagon fibrils (Homo sapiens, UniProt P01275); assay type: binding; conditions: 4:1 w/w CSF protein:fibril
T2 construct: fibrils of the peptide hormone glucagon
T2 sequence (P01275 53-81 limits assumed): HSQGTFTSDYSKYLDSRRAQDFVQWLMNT
Experimental: as §1, §2, §3, §4, §5, §6, §7

C-36 fibrils = target: T3, C-36 fibrils (Homo sapiens, UniProt P01009); assay type: binding; parameters: key to Identification status of CSF protein bound: C-36: *: Identified, but not quantified; —: Not identified in any of the samples; conditions: for Relative composition of CSF proteins bound: C-36: 4:1 w/w CSF protein:fibril
T3 construct: the 36 residue C-terminal fragment of α1-antitrypsin (C-36)
T3 sequence (P01009 383-418 limits assumed): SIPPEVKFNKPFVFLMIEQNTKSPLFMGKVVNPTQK
Experimental: as §1, §2, §3, §4, §5, §6, §7

αSN fibrils = αSN fibrils (Homo sapiens, UniProt P37840); assay type: binding; parameters: key to Identification status of CSF protein bound: αSN: *: Identified, but not quantified; —: Not identified in any of the samples; conditions: for Identification status of CSF protein bound: αSN: symbol cells
Experimental: as §1, §2, §3, §4, §5, §6, §7

FAS4-AD aggregates = system: T4, FAS4-AD aggregates; assay type: binding, human; parameters: key to Identification status of CSF protein bound: FAS4-AD: *: Identified, but not quantified; —: Not identified in any of the samples; conditions: symbol cells
T4 construct: aggregates of a mutated version of the FAS1-4 domain of TGFBIp
Experimental: as §1, §2, §3, §4, §5, §6, §7

Ab1 fibrils = system: T5, Ab1 fibrils; assay type: binding, human; conditions: 4:1 w/w CSF protein:fibril
T5 construct: Synthetic amyloid β peptide 1–40 was purchased from Caslo Aps (Lyngby, Denmark); purchased Caslo Aps (Lyngby, Denmark); host or cells: synthetic peptide
Experimental: as §1, §2, §3, §4, §5, §6, §7

Molecule	Relative composition of CSF proteins bound: Ab2 (Ab2 fibrils)	Relative composition of CSF proteins bound: Glucagon (glucagon fibrils)	Relative composition of CSF proteins bound: C-36 (C-36 fibrils)	Relative composition of CSF proteins bound: αSN (αSN fibrils; 4:1 w/w CSF protein:fibril)	Identification status of CSF protein bound: FAS4-AD (FAS4-AD aggregates)	Relative composition of CSF proteins bound: Ab1 (Ab1 fibrils)	Identification status of CSF protein bound: αSN (αSN fibrils)	Identification status of CSF protein bound: C-36 (C-36 fibrils; symbol cells)
Calsyntenin-1: CSF protein bound to fibrils (protein, UniProt O94985 29-981, looked up) Calsyntenin-1: ARVNKHKPWLEPTYHGIVTENDNTVLLDPPLIALDKDAPLRFAESFEVTVTKEGEICGFKIHGQNVPFDAVVVDKSTGEGVIRSKEKLDCELQKDYSFTIQAYDCGKGPDGTNVKKSHKATVHIQVNDVNEYAPVFKEKSYKATVIEGKQYDSILRVEAVDADCSPQFSQICSYEIITPDVPFTVDKDGYIKNTEKLNYGKEHQYKLTVTAYDCGKKRATEDVLVKISIKPTCTPGWQGWNNRIEYEPGTGALAVFPNIHLETCDEPVASVQATVELETSHIGKGCDRDTYSEKSLHRLCGAAAGTAELLPSPSGSLNWTMGLPTDNGHDSDQVFEFNGTQAVRIPDGVVSVSPKEPFTISVWMRHGPFGRKKETILCSSDKTDMNRHHYSLYVHGCRLIFLFRQDPSEEKKYRPAEFHWKLNQVCDEEWHHYVLNVEFPSVTLYVDGTSHEPFSVTEDYPLHPSKIETQLVVGACWQEFSGVENDNETEPVTVASAGGDLHMTQFFRGNLAGLTLRSGKLADKKVIDCLYTCKEGLDLQVLEDSGRGVQIQAHPSQLVLTLEGEDLGELDKAMQHISYLNSRQFPTPGIRRLKITSTIKCFNEATCISVPPVDGYVMVLQPEEPKISLSGVHHFARAASEFESSEGVFLFPELRIISTITREVEPEGDGAEDPTVQESLVSEEIVHDLDTCEVTVEGEELNHEQESLEVDMARLQQKGIEVSSSELGMTFTGVDTMASYEEVLHLLRYRNWHARSLLDRKFKLICSELNGRYISNEFKVEVNVIHTANPMEHANHMAAQPQFVHPEHRSFVDLSGHNLANPHPFAVVPSTATVVIVVCVSFLVFMIILGVFRIRAAHRRTMRDQDTGKENEMDWDDSALTITVNPMETYEDQHSSEEEEEEEEEEESEDGEEEDDITSAESESSEEEEGEQGDPQNATRQQQLEWDDSTLSY	1.8 ± 0.8 % of total protein	0.4 ± 0.2 % of total protein	1.2 ± 0.1 % of total protein	3.1 ± 0.4 % of total protein	—			
α2-HS-glycoprotein: CSF protein bound to fibrils (protein, UniProt P02765 19-300; P02765 341-367, looked up) Alpha-2-HS-glycoprotein chain … 1: APHGPGLIYRQPNCDDPETEEAALVAIDYINQNLPWGYKHTLNQIDEVKVWPQQPSGELFEIEIDTLETTCHVLDPTPVARCSVRQLKEHAVEGDCDFQLLKLDGKFSVVYAKCDSSPDSAEDVRKVCQDCPLLAPLNDTRVVHAAKAALAAFNAQNNGSNFQLEEISRAQLVPLPPSTYVEFTVSGTDCVAKEATEAAKCNLLAEKQYGFCKATLSEKLGGAEVAVTCMVFQTQPVSSQPQPEGANEAVPTPVVDPDAPPSPPLGAPGLPPAGSPPDSHVL Alpha-2-HS-glycoprotein chain … 2: TVVQPSVGAAAGPVVPPCPGRIRHFKV	1.9 ± 0.6 % of total protein	0.7 ± 0.2 % of total protein	3.6 ± 0.7 % of total protein		—	1.1 ± 0.0 % of total protein	*	
Fibulin-1: CSF protein bound to fibrils (protein, UniProt P23142 30-703, looked up) Fibulin-1: DVLLEACCADGHRMATHQKDCSLPYATESKECRMVQEQCCHSQLEELHCATGISLANEQDRCATPHGDNASLEATFVKRCCHCCLLGRAAQAQGQSCEYSLMVGYQCGQVFQACCVKSQETGDLDVGGLQETDKIIEVEEEQEDPYLNDRCRGGGPCKQQCRDTGDEVVCSCFVGYQLLSDGVSCEDVNECITGSHSCRLGESCINTVGSFRCQRDSSCGTGYELTEDNSCKDIDECESGIHNCLPDFICQNTLGSFRCRPKLQCKSGFIQDALGNCIDINECLSISAPCPIGHTCINTEGSYTCQKNVPNCGRGYHLNEEGTRCVDVDECAPPAEPCGKGHRCVNSPGSFRCECKTGYYFDGISRMCVDVNECQRYPGRLCGHKCENTLGSYLCSCSVGFRLSVDGRSCEDINECSSSPCSQECANVYGSYQCYCRRGYQLSDVDGVTCEDIDECALPTGGHICSYRCINIPGSFQCSCPSSGYRLAPNGRNCQDIDECVTGIHNCSINETCFNIQGGFRCLAFECPENYRRSAATLQQEKTDTVRCIKSCRPNDVTCVFDPVHTISHTVISLPTFREFTRPEEIIFLRAITPPHPASQANIIFDITEGNLRDSFDIIKRYMDGMTVGVVRQVRPIVGPFHAVLKLEMNYVVGGVVSHRNVVNVHIFVSEYWF	1.3 ± 0.1 % of total protein	0.3 ± 0.0 % of total protein	1.2 ± 0.2 % of total protein		—	1.4 ± 0.1 % of total protein	—	
Amyloid-like protein 1: CSF protein bound to fibrils (protein, UniProt P51693 39-650, looked up) Amyloid beta precursor like …: SLAGGSPGAAEAPGSAQVAGLCGRLTLHRDLRTGRWEPDPQRSRRCLRDPQRVLEYCRQMYPELQIARVEQATQAIPMERWCGGSRSGSCAHPHHQVVPFRCLPGEFVSEALLVPEGCRFLHQERMDQCESSTRRHQEAQEACSSQGLILHGSGMLLPCGSDRFRGVEYVCCPPPGTPDPSGTAVGDPSTRSWPPGSRVEGAEDEEEEESFPQPVDDYFVEPPQAEEEEETVPPPSSHTLAVVGKVTPTPRPTDGVDIYFGMPGEISEHEGFLRAKMDLEERRMRQINEVMREWAMADNQSKNLPKADRQALNEHFQSILQTLEEQVSGERQRLVETHATRVIALINDQRRAALEGFLAALQADPPQAERVLLALRRYLRAEQKEQRHTLRHYQHVAAVDPEKAQQMRFQVHTHLQVIEERVNQSLGLLDQNPHLAQELRPQIQELLHSEHLGPSELEAPAPGGSSEDKGGLQPPDSKDDTPMTLPKGSTEQDAASPEKEKMNPLEQYERKVNASVPRGFPFHSSEIQRDELAPAGTGVSREAVSGLLIMGAGGGSLIVLSMLLLRRKKPYGAISHGVVEVDPMLTLEEQQLRELQRHGYENPTYRFLEERP	3.4 ± 0.7 % of total protein	0.6 ± 0.0 % of total protein	2.0 ± 0.1 % of total protein		—	2.8 ± 0.2 % of total protein	*	
Cystatin-C: CSF protein bound to fibrils (protein, UniProt P01034 27-146, looked up) Cystatin-C: SSPGKPPRLVGGPMDASVEEEGVRRALDFAVGEYNKASNDMYHSRALQVVRARKQIVAGVNYFLDVELGRTTCTKTQPNLDNCPFHDQPHLKRKAFCSFQIYAVPWQGTMTLSKSTCQDA	6.0 ± 0.6 % of total protein	0.9 ± 0.0 % of total protein			*	3.9 ± 0.4 % of total protein	*	*
